# T1: canine IL-13 (canine, UniProt Q9N0W9 19-131, limits assumed, biotin-labeled in the Octet assay (site not stated))
# T1 sequence (looked up): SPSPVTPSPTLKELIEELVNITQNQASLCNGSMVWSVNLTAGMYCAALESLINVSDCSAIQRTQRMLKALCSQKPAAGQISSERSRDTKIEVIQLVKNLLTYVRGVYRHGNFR
# T2: canine IL-4 (canine, UniProt O77762 25-132, biotin-labeled in the Octet assay (site not stated))
# T2 sequence (looked up): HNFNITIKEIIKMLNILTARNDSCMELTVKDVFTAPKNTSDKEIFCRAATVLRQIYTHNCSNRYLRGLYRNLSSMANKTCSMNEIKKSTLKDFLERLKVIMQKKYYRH
# Experiments:
# canine IL-13 [1] = biological target: T1, canine IL-13; experiment: cell-based or functional assay
# canine IL-4 [2] = biological target: T2, canine IL-4; experiment: cell-based or functional assay
# canine IL-13 [3] = biological target: T1, canine IL-13; experiment: BLI (Octet HTX), biotin-cIL-13 on SA biosensors, fusion protein in solution, 1:1 fit
# Protocol: (§1) The binding constants for the cFc fusion proteins provided in Tables 3 and 4 below, were determined using OCTET® HTX. All kinetics measurements were performed by OCTET® HTX using SA® biosensors and DATA ACQUISITION® 12.0 software. 10 μg/mL of biotin-labeled antigen, either canine IL-4 (cIL-4) or canine IL-13 (cIL-13) were loaded onto the SAR biosensors for 120 seconds. Next, the biosensors were placed into 1×pH 7.0 TBS/Casein buffer for 60 seconds for the blocking phase. For the association phase, antigen loaded biosensors were placed into 2-fold serial dilutions from 1 μM down to 15.6 nM of the wild-type, the bispecific, or the FcRn-mutant receptor Fc-fusions that recognized the cIL-4 or cIL-13 antigen in 1×pH 7.0 TBS/Casein buffer for 30 seconds. The last well was buffer alone and that sensor was used for reference sensor subtraction. Finally, the biosensors were placed into 1×pH 7.0 TBS/Casein buffer for 120 seconds for the dissociation phase. The results were then analyzed using Data Analysis 12.0 software and the curves were fitted using a 1:1 binding model.
# canine IL-4 [4] = biological target: T2, canine IL-4; experiment: BLI (Octet HTX), biotin-cIL-4 on SA biosensors, fusion protein in solution, 1:1 fit
# Protocol: as §1
# canine IL-13 [5] = biological target: T1, canine IL-13; experiment: BLI (Octet); summary table, rounded from Table 4
# canine IL-13 [6] = biological target: T1, canine IL-13; experiment: cell-based or functional assay; remark: listed apart in the source
# canine IL-13 [7] = biological target: T1, canine IL-13; experiment: cell-based or functional assay; remark: listed apart in the source
# canine IL-13 [8] = biological target: T1, canine IL-13; experiment: BLI (Octet)
# Protocol: as §1
# canine IL-4 [9] = biological target: T2, canine IL-4; experiment: BLI (Octet)
# Protocol: as §1
# canine IL-4 [10] = biological target: T2, canine IL-4; experiment: cell-based or functional assay; remark: listed apart in the source
# canine IL-4 [11] = biological target: T2, canine IL-4; experiment: BLI (Octet); summary table, rounded from Table 3
binder,measurement,setting,value
"cIL-4Rα-13Rα1_ZW1-cFc (Fc fusion, also called cIL4Rα-IL13Rα1_ZW1-cFc; cIL-4Rα-IL-13Rα1_ZW1-cFc) chain 1: VKVLHEPSCFSDYISTSVCQWKMDHPTNCSAELRLSYQLDFMGSENHTCVPENREDSVCVCSMPIDDAVEADVYQLDLWAGQQLLWSGSFQPSKHVKPRTPGNLTVHPNISHTWLLMWTNPYPTENHLHSELTYMVNVSNDNDPEDFKVYNVTYMGPTLRLAASTLKSGASYSARVRAWAQTYNSTWSDWSPSTTWLNYYEPWEQHLPPKRENGRVPRPPDCPKCPAPEMLGGPSVFIFPPKPKDTLLIARTPEVTCVVVDLDPEDPEVQISWFVDGKQMQTAKTQPREEQFNGTYRVVSVLPIGHQDWLKGKQFTCKVNNKALPSPIERTISKARGQAHQPSVYVYPPSREELSKNTVSLTCLIKDFFPPDIDVEWQSNGQQEPESKYRTTPPQLDEDGSYALVSKLSVDKSRWQRGDTFICAVMHEALHNHYTQESLSHSPGK chain 2: GGVAAPTETQPPVTNLSVSVENLCTVIWTWDPPEGASPNCTLRYFSHFDNKQDKKIAPETHRSKEVPLNERICLQVGSQCSTNESDNPSILVEKCTPPPEGDPESAVTELQCVWHNLSYMKCTWLPGRNTSPDTNYTLYYWHSSLGKILQCEDIYREGQHIGCSFALTNLKDSSFEQHSVQIVVKDNAGKIRPSFNIVPLTSHVKPDPPHIKRLFFQNGNLYVQWKNPQNFYSRCLSYQVEVNNSQTETNDIFYVEEAKCQNSEFEGNLEGTICFMVPGVLPDTLNTVRIRVRTNKLCYEDDKLWSNWSQAMSIGENTDPTPKRENGRVPRPPDCPKCPAPEMLGGPSVFIFPPKPKDTLLIARTPEVTCVVVDLDPEDPEVQISWFVDGKQMQTAKTQPREEQFNGTYRVVSVLPIGHQDWLKGKQFTCKVNNKALPSPIERTISKARGQAHQPSVYVLPPSREELSKNTVSLLCLIKDFFPPDIDVEWQSNGQQEPESKYLTWPPQLDEDGSYFLYSKLSVDKSRWQRGDTFICAVMHEALHNHYTQESLSHSPGK","IL-13 (IC50), summary table",canine IL-13 [1],3 nM
same,"IL-4 (IC50), summary table",canine IL-4 [2],50 pM
same,Kd,canine IL-13 [3],0.415 nM
same,koff,canine IL-13 [3],3.91e-05 s⁻¹
same,kon,canine IL-13 [3],94400 M⁻¹ s⁻¹
same,Kd,canine IL-4 [4],9.85 nM
same,koff,canine IL-4 [4],0.00234 s⁻¹
same,kon,canine IL-4 [4],237000 M⁻¹ s⁻¹
same,Kd,canine IL-13 [5],0.4 nM
same,IL-13 IC50 (inhibition of cIL-13 mediated STAT6 phosphorylation in DH82 cells),canine IL-13 [6],3.02 nM
same,"fold change of the concentration that inhibits 50% of the cIL-13 mediated STAT6 phosphorylation in DH82 cells, against cIL-13Rα1-cFc",canine IL-13 [7],6 fold lower
same,"fold change of the concentration that inhibits 50% of the cIL-13 mediated STAT6 phosphorylation in DH82 cells, against cIL-13Rα2-cFc",canine IL-13 [7],~20 fold higher
same,fold tighter binding than the unmodified IL-13Rα1-cFc,canine IL-13 [8],8 fold
same,fold change of KD against the unmodified cIL-4Rα-cFc homodimer,canine IL-4 [9],~10000 fold
same,IL-4 IC50 (inhibition of cIL-4 mediated STAT6 phosphorylation in DH82 cells),canine IL-4 [10],0.046 nM
same,Kd,canine IL-4 [11],10 nM

# Reference: US20250325630A1, “HOMODIMER FUSION PROTEINS FOR TREATING ATOPIC DERMATITIS” (Intervet Inc., priority 2021, published 2025)
